# From the DeepSol protein solubility set
# Assay: soluble on expression in E. coli; label from the status in PepcDB or PDB records
row,Sequence,soluble on expression in E. coli
1,MAHHHHHHMAVNARHDLLYECLGLVYELYGGLAEDLQELHDDPLHPHFHRRIARIKRDRERIATELDKRYAKLHPTVKTVYDAFLVRRYYHLADWIEHVERKRERLINDLSPDVMEKTMRMRGIAEQYLRHLRALEHALYEDPLMGLLGGDRGTNVLDQYTPGELAMLRQKAAYFRNMRRFGANQLDADMHTH,not soluble
2,MAHHHHHHMAWCDASFSVIYGNEELVVVNKPHDVPMDGEACPVTVEKWAWAYLAKGGCADNNAGGGVEKEDDTTRTAGRRRGEKKMVKFVHQLDYATSGVLCVAFSREMAARLAHCFEMRTTRKAYLAVLFGMMPTTSAMQKKLDTDTGVDFLRGSPYASHVRRVSMDDVPGVCFIRKCVIEASGHEEGENADCCATLLEVNLPVGYDTTDHEGFRMTVNGRDARGSVTYLSVLQRGYMTHPTSGCPVPVTKVALFPRTGRRHQLRVHCHAIGFPILGDVTYARIPTPRVAPKVTGAEEVATVGATESINAPNEIGAIEAWQRMMLHAWRLSFPVSVEPLRSGSERYMQKKKRRRETLGLAVAGGDDTTVWTHFETEDPFQLVRPE,not soluble
3,MAHHHHHHMCPYEERQELRISMGFAGRRPNLTFTSDTMDAHAYLVRHWALNAIAESAGKGMSVQRDSIPFLARSQHSIVNENKMTFLRPDGKIKYNIPKHWLLESDSSVNFLNASPGPVLPSEADNLLVCCTIYEERPEKCMRVYRVRTREDYIAVNQEILAAKCQLLEMNEVNGRNSMRISSRSTRASQQKERLGQTQRVLRTSMERKSINTAADSAGLPFSAFALSGLVSNAAFTIHKTDTSRQINIIHSFLRTEPTCKATIARSIVGNNVTLGPDVRITNSIILDNAEIGAGAIISNSVIGSSAMVNSGVRVVSCTVGPQCLVESNETDRVIRA,not soluble
4,MAHHHHHHMDCNTGMQLGQQFSKDVTMMHGGVPMSGAMSEQDALMVSAQVGGASPMMAAQWAQNFQQQQAMQAMRQQHEMEQAFQNSQQQQHAAVAQSGQMLGMAGPQQQQFMVQQQQQASMMNAAMMSQGMMTANMGFGMMMPRTQYQPLPNLSVLQPNQQQQQQQQLVNLAPAVQDSAWADQLSQQQWSTDYSQVQTFSAPGMEDKTVEERIKDSEFYKFMDQVKNKEVLIDEEKGELVQGPGPEVGVPEDAEYLRHWAEMEGLNMPEGVFQPPPPASAMMTPENGDPDTYIKEMDMAENDVEDWAQEYAEMQERLQKVTNNTDYPFEPNNPYMFHDFPFDEGMEMLQLGNLAEAALAFEAVCHKDSSNEKAWQILGTTQAENEKDGLAIIALNNARKLNIRNLEVHAALSVSHTNERNADAAMDSLKAWLVNHPEYEQLASVSIPPDAELDVQETFFFADPSRMREARTLYEAAIEMNPSDSQLFTNLGVLHNVAHEFDEAAECFRKAVALHPDDPKMWNKLGATLANGGHPDQALEAYNRALDINPGYVRAMYNMAVAYSNMSQYNMAARQIVKAIASQQGGTKPSGEGSIMATRNMWDLLRMTLNLMDRDDLVQLTYNEQLEPFVKEFGLEGHV,not soluble
5,MAHHHHHHMDFQNRVGHKTGSGMPLSREDINQERRERLKQLALENIDITKDPYILKNNVGMFECKLCLTLHNNESSYLCHTQGKKHQMNLAQRLLKEKNEMTTNRLNKPVSEPRKIVKIGKPRYDVTRVRNKKNQLGILFELSFPNIKENTKPKFRFMSSFEQKIEAPDKKYQYLLFAAEPYETIAFKIPNIDIDENEGFYYKWFDKKKIFVMQIHFQNAFPPGHVNLREHSNFLSSTNRW,not soluble
6,MAHHHHHHMDLFNCQYCSISPFDYILDYLYGDTSSKKEEKKKKSNITYDDSSSNNVSQVVSKIDEEIEKRTTNEILLLCRAWENYVHPRAKEYWKDSQQLQNILCKIANGITKNDDPILGDDYACVFWYGDKNKNDNCPIISVKKGNDNIETITYVNRVLIFLYADEASFQELQKKPKKAFTMACGNTNCINLTHISLDD,not soluble
7,MAHHHHHHMDRLAGSFLSNGDVANASSLYNSLEKLNPTRYSRMARICRVLLNPQGVPLPHRHLDICEALLDPLVPPEVLLRDSAENVQKSFQRLAVCAHPDKNPSPSANEAFLRLTMMKDKALELLRNGVGRKCDGATEAPPGKAADSNGGKGKPKMQGSGPAVPTVAHRRRPLRPGVPLPAAATAVTSDINTAAAVSSKISQLRRTKITLNALKRKDIADDFEIFSATQRTTAVQSEVSHSDVGEDHLATTVPVMSTKERARCANRRRSQSSAPQEKTTTVPRASSPNSNPLLSSSLYYAMPVSPHKPLSPSPQTLEDPTGSVKSSGAGDRDASALYSPFIPTAAIPADSDAIRRQIDEACLRLREMRLQHTTVRLDLDLSFEAYERSKQPQ,not soluble
8,MAHHHHHHMDSEPFAFDGEGSRARQSEYVDMTLVHLGMKLRDMGIAFEDMELATVPTQFAEQLLSYIEAFEERESAIRAATTEHRAQLEQEQKRLESLQEATEKARGEVAILSERISSALSAFRGEEKLEAQHRRERQRDVQDIVRQIEKKELELRRETMERDRLSKMLKKVKK,soluble
9,MAHHHHHHMDTPEREVSPPPAEEDENKKRVIIILEGAHLQLIETKRYIYELANIMKHKHLLRDQKNEEEMRNFRPDILHQCLIHLLESALNKYGLLQVYIKTHDNQLFYVSSHLKIPKTYDQFESLMVTFLRKYKIKANEKNLCLLKFLKNDYSAILPINGKKIGLSVKGKKVHFSEYVQNLQNEDVPVTFFIGAVAYSNPITKLENLDDNICISEFSLSAATCCSTICSEFENLLGLF,soluble
10,MAHHHHHHMDVEHFIASLPPRTSVCGLHSVLSHASVHSLDSLGSTETPMLLTAQNFSFMSSGGDGDDNIGNAASTDSRATGAHGSGSNGSSHSGHHPTSPSPCGANASPFISKRLKYVIRSVALDHEECGGDSLSSRIASSYIGSSMPATNSQTRRRSERHVTFALEPEVLDARPRFSAYSRTVELLEQICLDKQSPWNALSLLQSALEERRGQLAQLRGQWDGALTGEAPTLTSSVTPKPCTITTSSGGGAVCHSRDKTTVPSPKSFPSATTSTLMTKGKSSRYSKVKPKACTTCSAM,not soluble
11,MAHHHHHHMEAETSKISEVPLPIPIGINGFGAVGRAVLFASMTEPQVTVVAVNDFSVSINYVLYVLQNESPLSAEDKASLTVVGEYIFYRGTERIRVTQKHDLVDIAWRDAGVSYVVECTGFTSTRDRCWGHLTSGARGVLVAGQSGDAPAIVAGVNDSDLSKIQPIICSGAPLAVALAPFIRILHESFGVEDCSYTAIHAIQPVEPNAARSANSQDWRQTRVTLDSITPYAHTGMTTFCKLMPTLSSRITGSAFQVPVTKGCAIDMLLRFKQPVAKESVDEALIEASKDRLKDVLFVSKRDFISRDLLPDGKLCYDPSASQCVREGELYKFTLWFDLERSFAKRLISLIPVMNDADAKKNNV,soluble
12,MAHHHHHHMECVELTPSESGTINRRGAIPANLAGNSYYARRYSTQGGTRRGTLDATEPHVQFRSGDLVLQLCLSAVPRELSHKRIVDVTGIQTSFHNVSERQSKALATVEEAMQTMHLHDGHEVPALQRGDVNLVRLQPRCVYISPPPSHSFAAGEAVAVDLRHLSSALRPLSNPYVLLAQTRRLSFRSEMEAVQTAQVMASFLTELRGGGAVSEGCGSSVGVFGSAAVLRPVVRDGHLVAMTLCPPRDTARGCRRR,not soluble
13,MAHHHHHHMEDVGGKANCQIEPERKEAVIDTSNWPLLLKNYDKLNVRSSHFTPLPMGNSPYSRNLEEYLKYGIINLDKPSNPSSHEVVSWIRKILRCEKTGHSGTLDPKVTGVLLVCLNRATRLVKSQQESGKEYVCVCKFHSKPKSLEEVKLVLNNFHGAIFQRPPLICAVKRQLRVRTIYDSKLLDFDDANNVCVFWVKCQAGTYIRTLCEHIGLLLGVGAHMQELRRVKSGNMTEYDNMCTLHDILDAQHVYDTTGDESYLRKIITPLEKLLINFPRIVIKDSAVNAICYGAKLTIPGVLRFDNNIDVNSEVVLMTTKGEAVALAIAQMTSSVIATVDHGVVSLTKRVIMDRDTYDVKWGYGTRSMEKKKLILAGLLDKYGKPNEKTPLSWIKSEGYVPKLVGDTAIYTLNTDDGNNNEVPENGKNVVGENNNPVGGSSAFNLSEGENKKKKDGEGAEENDNNAGEQSDSGVVKKKRKKN,not soluble
14,MAHHHHHHMEENNQVEKNKGTNQLCFVKMLVNNLVAGSVIGKNGSIITSIENKTGCSLKLSPTNSYFPNTQERVLVLCGKQEQINNALLIILDKIRQITVQSFQDKQNMNTVPKYTCRIVIPKSAASAIIGKGGQQIKQLQDSTGAKIQISSREDGLNERIISIIGPFESISDTAIKVTNSIQNDPNLKDLLNVIYNKDTNMNGRSSLSQNFVNQVPLNGYVVPQQYGVFQHEQYMDVNMMNSLMRHSRDLFNLPCEISIQIPDEFIGSVIGKNGSRLTNIMNSTGAQIRISRKGELIPGTADRKVRIMGTVAAVHGAHVLLLQRLESVYMQLRTMQVKCDA,soluble
15,MAHHHHHHMEGQERRSVVEMTNTKTILLDPKDGWAPKAQFDFDASLWSIPPTHRIVHTFQDTKHKTYATQKDVYNLIAKDLVPHVFNGFNSCILTYGQTGSGKTYTMMGLYDPNASCGGDGEEGIIPRVSNDIFIILKERMEEEAKTRPPRDRTKFRVEVSFVEIYMERVRDLLDPALRHTRSNEHLQDARIRQDPYSGPFVEGVTKYEVENWTQCCTLLERGSQHRTTCATAVHNQSSRSHAIFQLTVVQEQVVPGNNKYALPAFKTQAGRINLVDLAGSERGGFQDYVKESAAINTSLLALRRVIDNLTERQNMLMEMAEAEITGKHYQERPLPQVPFRDSVLTWLLSDSIGGNARTTMVATLSPLVKNYADTLATLQWSSRARNLVTLVKMNDQALVHNGMASHAGALDNAVRIQRQNLDSLRQTLRSKQEAAQQLERQTKEHKKSLTKVRGRERAILRDRAALIIQRAFHRFLFYKKYEAYELHHAKLRGGNKRGTGDAADFQKIRKEAEAREQAAKEALKAEEALTDEKAAAVARYESNYEARALRRREAEERQARIVEVINGNELLRQYVEKRRQEVEALRSVADNENREREMAVKKLADMIKAIADHKTDQHKRKVEEDQKMLEMLRKKRDEVRSRRYEVLRQLQTLRERHKKVVKK,not soluble
16,MAHHHHHHMEIADRPLSEIIKEQKIDKELRRRHRGNQSGGNSDKKSVNRQGSSSQRQRNNNNNNTSGSRSRGSGNRSGGNKPESGRRRFRTDGGRRRGGNAVSAGSGSFGASRRRLADRADRRRRGALGGDNGNDGFGRGRDRDNNDRRGVKSAPRRRRISGAERNERNRNRDRRSALSRSRFDRDY,soluble
17,MAHHHHHHMEPDDGVASWMELREEGNKAFKSEAYANAVKLYSEAIKLNSKEAALFSNRSAAYIKMKEYQKAVLDAEAAIANDKTFVKGYSRLHNALCHLGRFREATQKLKEALVVLEACGASPEDKKQIQELHRTAEEGQRGFEAGQRLLEERNFLAAERELVKAAQLFPDCAIVGIMLGESQASLYPERVIRSLTALSSAHADDTYYLYVRALASYYSGQSGLNNAQSILRHTIELDPDNRKATELLKKIRAVESQKTEGNAAFKEKRFTAAVNCYKAAIEVDPSNIRMTAVLRGNQAAAKMELKEYSSALLDCDFAIKNGAESAKLYARRSRIHEALENYDDALRDIQRAAEMDPSYNGEAQQMKISAKRAKRKDYYKILGLPQGESDDSSIKRAYKKGCLQWHPDKWAHATEEEKAHAEKMFKEVGEAFSILSDPQKKRLYDSGQLDDASSPGGTSDFPARQADIFQMMNMMFQGGCGEGGMPSGFSFTVDPRSRRQKQTFHYR,soluble
18,MAHHHHHHMEQRELEKLFAPYGQILSAAVMRNIHTGNSLGTAFVRYASTEEAMSAIKGMSGKRIGGRAIAVQWAKKQHDYAPVGEARKKISKLFVRNIPLDINTVVLEDMFSMYGPVKSVSIHKDTAPDCDKNFERHIAFITFLADGAAERAAEAVHNTRPFPSCGKVPLMVKLAEDAPQRIHHGTGSKNSANALRTKQQLQGDMSAMSSGQEQFFDAPAVQQCFPTGTGTGAMVVAPTSYFSLLASGGLILPGSLPGAVMGSEAPYPWRTRVTWPQGTGVPFPFYNGGAAATAANPLAPSNACATPPSGSPVSCMNNGGFTSFPMYTTPFCPSTSPGLSGTQADSVAGSPLILPSSLHQ,not soluble
